Usually Kd stands for the equilibrium constant for the complex coming apart. By koff is commonly meant the rate constant with which the complex falls apart. In general, kon refers to the second-order rate constant of association.

*1 amine or outer side, *2 acyl side, *3 side chain or, on linkers, in order; H or OH if unused. Bridges are numbered along the chain shown (N, C = ends). Primed or numbered codes have the meaning given here. Side-chain parts run from the residue outwards. [ ]: non-standard residue; d: D form. Ygp″ = O-(PEG8-amino)-tyrosine (O-(8x polyethylene glycol-amino)-tyrosine); Yn3″ = O-(PEG9-azido)-tyrosine (O-(9x polyethylene glycol-azido)-tyrosine); Ygp = O-(8x polyethylene glycol-amino)-tyrosine; Yn3 = O-(9x polyethylene glycol-azido)-tyrosine; PABC = O=C(OCc1ccc(N[*:1])cc1)[*:2]; Ygp(3) = O-(PEG8-amino)-tyrosine; Yn3(3) = O-(PEG9-azido)-tyrosine; Cit = NC(=O)NCCC[C@H](N)C(=O)O; hSer = N[C@@H](CCO)C(=O)O; Nle = CCCC[C@H](N)C(=O)O; Dab = NCC[C@H](N)C(=O)O

The results in this text go back to patent US20240417436A1 (BRIGHT PEAK THERAPEUTICS, published 2024).

Test [1] concerns the target T1, IL-2 receptor βγ complex on pan T cells (human, UniProt P14784 27-551; P31785 23-369).
T1 sequence (looked up) 1: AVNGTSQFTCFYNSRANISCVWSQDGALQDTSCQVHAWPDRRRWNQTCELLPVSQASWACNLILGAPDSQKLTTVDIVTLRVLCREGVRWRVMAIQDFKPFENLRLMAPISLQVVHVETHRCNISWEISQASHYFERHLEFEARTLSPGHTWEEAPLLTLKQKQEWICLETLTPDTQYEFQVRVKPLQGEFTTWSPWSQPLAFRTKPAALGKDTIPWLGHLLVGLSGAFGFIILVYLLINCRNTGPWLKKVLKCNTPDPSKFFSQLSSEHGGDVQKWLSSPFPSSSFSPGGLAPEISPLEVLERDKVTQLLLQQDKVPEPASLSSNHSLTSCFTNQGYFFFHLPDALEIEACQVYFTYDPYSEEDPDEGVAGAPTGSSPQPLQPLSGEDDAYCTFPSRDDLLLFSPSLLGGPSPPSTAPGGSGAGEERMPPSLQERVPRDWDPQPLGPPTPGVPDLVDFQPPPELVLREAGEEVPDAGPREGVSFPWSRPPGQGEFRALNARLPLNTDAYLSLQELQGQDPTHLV
T1 sequence (looked up) 2: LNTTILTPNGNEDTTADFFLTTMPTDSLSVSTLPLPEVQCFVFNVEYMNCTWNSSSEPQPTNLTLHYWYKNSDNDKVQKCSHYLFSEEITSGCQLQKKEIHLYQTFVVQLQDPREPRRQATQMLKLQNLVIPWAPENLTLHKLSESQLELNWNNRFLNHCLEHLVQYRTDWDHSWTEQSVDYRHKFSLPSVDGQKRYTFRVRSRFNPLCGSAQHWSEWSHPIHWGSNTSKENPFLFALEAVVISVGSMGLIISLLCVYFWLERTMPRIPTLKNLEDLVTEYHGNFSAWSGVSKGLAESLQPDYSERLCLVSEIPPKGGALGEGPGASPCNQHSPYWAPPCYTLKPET
Nature of the test: cell-based or functional assay.

Test [2] deals with T1, IL-2 receptor βγ complex on pan T cells. Nature of the test: cell-based or functional assay. This is another data set of the same source.
For test [3], the target named is T2, recombinant human IL-2 receptor beta containing a His-tag and Avi-Tag (R&D Systems #AVI10459) (human, UniProt P14784 27-239).
T2 construct: bought protein, held on the Octet SAX2 sensor; also called CD122; IL-2Rβ
T2 sequence (looked up): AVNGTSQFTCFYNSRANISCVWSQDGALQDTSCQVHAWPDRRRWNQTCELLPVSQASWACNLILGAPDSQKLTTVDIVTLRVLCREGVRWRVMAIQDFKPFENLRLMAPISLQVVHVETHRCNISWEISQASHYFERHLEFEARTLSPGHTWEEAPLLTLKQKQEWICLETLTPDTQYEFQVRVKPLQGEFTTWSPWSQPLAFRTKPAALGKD
Nature of the test: BLI (Octet), receptor on SAX2 sensor, MMP2-treated IL-2 as analyte. As to the method:
(§1) Bilayer interferometry (BLI) assays were used to measure the binding constants between activatable IL-2 polypeptides (and activated versions thereof) to IL-2 receptor subunits or receptor complexes. BLI assays were conducted on an Octet® R8 instrument. Assay plates were 96 well, polypropylene, F-bottom (chimney well), black microplates (Greiner Bio-one, Cat. No: 655209). The biosensors were Octet® SAX2 (Sartorius, Cat. No: 18-5136). The assay buffer was 1× Kinetic Buffer (Sartorius, Cat. no: 18-5136) or Phosphate Buffered Saline (PBS) that contained 0.02% (v: v) Tween 20 (Polysorbate 20) and 0.1% (w/v) bovine serum albumin (BSA). The sensor was regenerated between measurements in 10 mM glycine pH 2.7 buffer.
(§2) Sensor attached receptors were either recombinant human IL-2 receptor beta containing a His-tag and Avi-Tag™ (R&D Systems™ #AVI10459) or an Avi-Tag™ Fc with human IL-2R beta and IL-2R gamma attached (Acrobiosystems Cat. no: ACRB-ILG-H82F3-25UG). Receptors were reconstituted from lyophilized powder to 500 μg/ml in PBS. Analytes were diluted in Kinetic buffer to 300 nM, then serially diluted to lower concentrations.
(In BLI a coated tip is dipped into the sample, and binding shifts an interference pattern.)

The target in test [4] is T3, Avi-Tag Fc with human IL-2R beta and IL-2R gamma attached (Acrobiosystems ACRB-ILG-H82F3-25UG) (human, UniProt P14784 27-239; P31785 23-262).
T3 construct: bought heterodimer; also called CD122 CD132; CD122/CD132 complex
T3 sequence (looked up) 1: T2 sequence (looked up)
T3 sequence (looked up) 2: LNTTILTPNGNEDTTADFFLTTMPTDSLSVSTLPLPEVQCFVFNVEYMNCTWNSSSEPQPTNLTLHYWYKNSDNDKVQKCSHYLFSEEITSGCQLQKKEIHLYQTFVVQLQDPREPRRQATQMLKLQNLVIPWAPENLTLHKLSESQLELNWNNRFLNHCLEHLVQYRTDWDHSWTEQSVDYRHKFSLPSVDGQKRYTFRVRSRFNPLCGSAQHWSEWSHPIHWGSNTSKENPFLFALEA
The test is described as above. As to the method: as §1, §2

Test [5] has as its target T3, Avi-Tag Fc with human IL-2R beta and …. Nature of the test: BLI (Octet), receptor on SAX2 sensor, IL-2 as analyte. As to the method: as §1, §2
The target in test [6] is T2, recombinant human IL-2 receptor beta …. In words: BLI (Octet), receptor on SAX2 sensor, IL-2 as analyte; construct CMP-145. As to the method:
as §1, §2

B1: CMP-130 (ligand)
chain: APTSSSTKKTQLQLE[Dab]LLLDLQ[Nle]ILNGINNYKNPKLTR[Nle]L[hSer][Yn3(3)]KF[Ygp(3)][Nle]PKKATELKHLQCLEEELKPLEEVL[hSer]LAQSKNFHLRPRDLISNINVIVLELKGSETTF[hSer]CEYADETATIVEFLNRWITFSQSIISTLT
Turning to B1, the “Average EC50, pSTAT5 assay in pan T cells, intact molecule” value in test [1] was 66.8 nM.

B2: CMP-131 (ligand)
chain: APTSSSTKKTQLQLEK([PABC-Cit-Val-Glu-Ac])LLLDLQ[Nle]ILNGINNYKNPKLTR[Nle]L[hSer][Yn3″]KF[Ygp″][Nle]PKKATELKHLQCLEEELKPLEEVL[hSer]LAQSKNFHLRPRDLISNINVIVLELKGSETTF[hSer]CEYADETATIVEFLNRWITFSQSIISTLT
modifications: not fully specified; ends and bridges not checked
As to B2, the “Average EC50, pSTAT5 assay in pan T cells, intact molecule” value in test [1] came to 56.9 nM.

B3: CMP-166, MMP2 cleaved (ligand)
chain: APTSSSTKKTQLQLEHLLLDLQKILNGINNYKNPKLTRXLXYKFYXPKKATELKHLQCLEEELKPLEEVLXLAQSKNFHLRPRDLISNINVIVLELKGSETTFXCEYADETATIVEFLNRWITFSQSIISTLT
modifications: not fully specified; as CMP-166 but cleavable peptide cut by MMP2 (macrocycle opened); cut site not given
With B3, the “Average EC50, pSTAT5 assay in pan T cells, MMP2 cleaved molecule” value (from here on “Average EC50 … MMP2 cleaved molecule”) in test [2] is 4.36 nM. Also, in test [3], the Kd worked out at 0.794 µM, the koff was 0.225 s⁻¹ and the kon came out at 283000 M⁻¹ s⁻¹. In test [4], the Kd came out at 0.00121 µM, the koff is 0.000684 s⁻¹ and the kon was 567000 M⁻¹ s⁻¹.

B4: CMP-167, MMP2 cleaved (ligand)
chain: B3 chain
modifications: not fully specified; as CMP-167 but cleavable peptide cut by MMP2 (macrocycle opened); cut site not given
For B4, in test [2], the “Average EC50 … MMP2 cleaved molecule” value turned out to be 5.31 nM. Also, in test [3], the Kd was found to be 0.658 µM, the koff turned out to be 0.227 s⁻¹ and the kon was determined as 345000 M⁻¹ s⁻¹. Moreover, in test [4], the affinity, expressed as Kd, was 0.00155 µM; the koff turned out to be 0.000923 s⁻¹; the kon is 594000 M⁻¹ s⁻¹.

B5: CMP-145 (ligand)
chain: APTSSSTKKTQLQLEHLLLDLQKILNGINNYKNPKLTR[Nle]L[hSer][Yn3]KF[Ygp][Nle]PKKATELKHLQCLEEELKPLEEVL[hSer]LAQSKNFHLRPRDLISNINVIVLELKGSETTF[hSer]CEYADETATIVEFLNRWITFSQSIISTLT
modifications: disulfide 58-105; not fully specified (residue 23); also: branched 27x PEG chains on the attached KKPLGLAG peptide, places not given here
For B5, in test [5], the koff stood at 0.00117 s⁻¹. Also, in test [6], the Kd was found to be 1.83 µM.

B6: CMP-168, MMP2 cleaved (ligand)
chain: APTSSSTKKTQLQLEHLLLDLQEILNGINNYKNPKLTR[Nle]L[hSer][Yn3]KF[Ygp][Nle]PKKATELKHLQCLEEELKPLEEVL[hSer]LAQSKNFHLRPRDLISNINVIVLELKGSETTF[hSer]CEYADETATIVEFLNRWITFSQSIISTLT
modifications: disulfide 58-105 (inferred); not fully specified (residues 9, 23); also: cleaved by MMP2, bridge opened, remnants on Lys9 and Glu23 not defined
For B6, the “Average EC50 … MMP2 cleaved molecule” value in test [2] is 6.3 nM. Further, in test [3], the Kd came to 1370 µM, the koff was 1.08 s⁻¹ and the kon came out at 789 M⁻¹ s⁻¹. In addition, in test [4], the dissociation constant Kd was 0.00227 µM, the off-rate (koff) amounted to 0.00164 s⁻¹ and the kon came out at 602000 M⁻¹ s⁻¹.
